Where “and” joins values, the source holds several entries; their conditions need not be identical. Identical values can stand only once.
B1: Alpha-lactalbumin, P00711 (parent)
chain: MMSFVSLLLVGILFHATQAEQLTKCEVFRELKDLKGYGGVSLPEWVCTTFHTSGYDTQAIVQNNDSTEYGLFQINNKIWCKDDQNPHSSNICNISCDKFLDDDLTDDIMCVKKILDKVGINYWLAHKALCSEKLDQWLCEKL

Variants of: B1
Details: Bos taurus; pH 7.4; Thermal; CD; Tris-HCl 20 mM; CaCl2 1 mM; reversible: yes(>95%); structure 1HFZ; whole UniProt chain shown

Row | Variant | Tm | change of melting temperature, mutant - wild type (higher = more stable) [°C] | ddG of mutation (higher = less stable) [kJ/mol] | unfolding enthalpy (van 't Hoff) [kJ/mol]
1 | Q136A | 52.1 °C and 56.2 °C | -4.1 | 4.02 | 307
2 | I78W | 51.7 °C and 56.2 °C | -4.5 | 3.89 | 272
3 | H51Y | 56.5 °C | 0.3 |  | 308
4 | H51A |  | -11.6 | 8.91 | 211
5 | Q73A | 54.3 °C and 56.2 °C | -1.9 | 1.72 | 283
6 | W123Y | 56.2 °C |  | 10.2 | 
7 | Y122A |  | -10.7 | 10 | 269
8 | Y122P | 55.1 °C and 56.2 °C | -1.1 | 0.92 | 260
9 | H126Y | 55.2 °C and 56.2 °C | -1 | 0.795 | 263
10 | H126W |  | -8.7 | 7.2 | 242
11 | H126A | 52.1 °C and 56.2 °C | -4.1 | 3.31 | 253
12 | V61A | 51.7 °C and 56.2 °C | -4.5 | 3.89 | 269
13 | V61G |  | -5.2 | 4.81 | 287
14 | V61N | 55.1 °C | -1.1 |  | 281
15 | K133E | 53 °C | -3.2 |  | 263
16 | K133Q | 53.5 °C and 56.2 °C | -2.7 | 2.51 | 291
17 | K133N |  | 10.7 | -11.1 | 382
18 | W137Y |  | -5.4 | 4.9 | 281
19 | W137H | 52.9 °C and 56.2 °C | -3.3 | 2.51 | 235
20 | L129H |  | 6.3 | -5.82 | 324
21 | L129E | 55.1 °C and 56.2 °C | -1.1 | 0.795 | 245
22 | L129R | 58.1 °C and 56.2 °C | 1.9 | -1.8 | 320
23 | A125S |  | -6.1 | 4.39 | 216

— FireProtDB (doi:10.1093/protein/12.7.581)
